# Molecular target: transferrin receptor 1 (TfR1) (human (endogenous in gastric cancer patient tissue and human GC cell lines)) (UniProt P02786)
# Sequence (P02786 whole entry): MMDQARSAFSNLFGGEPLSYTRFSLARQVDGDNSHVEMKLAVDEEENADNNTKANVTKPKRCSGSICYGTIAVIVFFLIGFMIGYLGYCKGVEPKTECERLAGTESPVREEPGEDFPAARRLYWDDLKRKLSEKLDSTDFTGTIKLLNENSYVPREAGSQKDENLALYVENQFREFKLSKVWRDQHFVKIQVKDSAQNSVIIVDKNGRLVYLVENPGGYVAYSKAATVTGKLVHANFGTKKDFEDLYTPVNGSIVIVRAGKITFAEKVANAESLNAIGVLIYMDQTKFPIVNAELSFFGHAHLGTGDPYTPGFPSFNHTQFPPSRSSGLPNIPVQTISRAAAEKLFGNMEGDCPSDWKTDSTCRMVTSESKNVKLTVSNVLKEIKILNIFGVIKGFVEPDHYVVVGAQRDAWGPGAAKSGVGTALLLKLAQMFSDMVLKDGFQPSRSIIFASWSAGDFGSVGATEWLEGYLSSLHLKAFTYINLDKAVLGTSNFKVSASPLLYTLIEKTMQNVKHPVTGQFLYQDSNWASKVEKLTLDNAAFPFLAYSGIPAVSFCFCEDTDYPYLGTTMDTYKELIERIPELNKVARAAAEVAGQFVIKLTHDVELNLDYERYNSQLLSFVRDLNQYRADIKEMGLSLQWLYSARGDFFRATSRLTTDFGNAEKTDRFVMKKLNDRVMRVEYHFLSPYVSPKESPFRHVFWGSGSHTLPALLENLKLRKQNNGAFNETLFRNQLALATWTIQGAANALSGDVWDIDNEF
# doxorubicin-loaded HFn nanocarrier (HFn-Dox), sequence (P02794 whole entry): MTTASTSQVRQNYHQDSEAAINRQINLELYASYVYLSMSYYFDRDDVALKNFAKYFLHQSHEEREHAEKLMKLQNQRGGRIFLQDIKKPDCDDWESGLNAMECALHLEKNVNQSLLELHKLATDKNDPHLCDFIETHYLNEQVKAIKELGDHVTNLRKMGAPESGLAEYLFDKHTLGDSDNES
substance,measurement,value
doxorubicin-loaded HFn nanocarrier (HFn-Dox) (from UniProt P02794 1-183) (natural protein),tumor growth inhibition (TGI) rate in TfR1-positive GC-PDX mouse models treated with HFn-Dox (against 41.6% for free Dox),91.1%
